Reference: the supplement of paper PMC5998384

Experiments:
[1] = tested on: HeLa Kyoto; experiment: solubility in G1/S (NP-40 vs SDS abundance) (log2 ratio); higher = more soluble; settings: cell cycle stage: G1/S
[2] = tested on: HeLa Kyoto; experiment: melting temperature (median over replicates), in situ; higher = more thermally stable
[3] = tested on: HeLa Kyoto; experiment: solubility change mitosis vs G1/S (difference of NP-40 vs SDS log2 ratios) (log2 ratio difference); higher = more soluble in mitosis
[4] = tested on: HeLa Kyoto; experiment: thermal stability score vs G1/S (z-score of summed log2 fold changes over temperatures); higher = more thermally stable than in G1/S
[5] = cell cycle stage: early G1 (4.5 h after nocodazole release)
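Throughout, for melting temperature (median over replicates), in situ: HeLa Kyoto cells synchronized by double thymidine or nocodazole block, proteins quantified by TMT10plex mass spectrometry, three independent biological replicates.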
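Throughout, for solubility change mitosis vs G1/S (difference of NP-40 vs SDS log2 ratios): synchronized HeLa Kyoto cells (double thymidine block for G1/S, nocodazole release for mitosis), protein amounts in NP-40 versus SDS lysates quantified by mass spectrometry, three biological replicates.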
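Throughout, for solubility in G1/S (NP-40 vs SDS abundance): HeLa Kyoto cells arrested at G1/S by double thymidine block, proteins quantified by TMT10plex mass spectrometry in mild NP-40 versus SDS extracts, three biological replicates.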
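Throughout, for thermal stability score vs G1/S (z-score of summed log2 fold changes over temperatures): synchronized HeLa Kyoto cells, proteins quantified by TMT10plex mass spectrometry, three biological replicates, mitosis taken 0.5 h after nocodazole release, G1/S directly after double thymidine block.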

Sequence	solubility in G1/S (log2) [1]	melting temperature ([2]; cell cycle stage: G1/S) [°C]	melting temperature ([2]; cell cycle stage: mitosis) [°C]	solubility change mitosis (log2) [3]	thermal stability score [4, 5]	thermal stability score ([4]; cell cycle stage: mitosis)
MADNLPTEFDVVIIGTGLPESILAAACSRSGQRVLHIDSRSYYGGNWASFSFSGLLSWLKEYQQNNDIGEESTVVWQDLIHETEEAITLRKKDETIQHTEAFCYASQDMEDNVEEIGALQKNPSLGVSNTFTEVLDSALPEESQLSYFNSDEMPAKHTQKSDTEISLEVTDVEESVEKEKYCGDKTCMHTVSDKDGDKDESKSTVEDKADEPIRNRITYSQIVKEGRRFNIDLVSKLLYSQGLLIDLLIKSDVSRYVEFKNVTRILAFREGKVEQVPCSRADVFNSKELTMVEKRMLMKFLTFCLEYEQHPDEYQAFRQCSFSEYLKTKKLTPNLQHFVLHSIAMTSESSCTTIDGLNATKNFLQCLGRFGNTPFLFPLYGQGEIPQGFCRMCAVFGGIYCLRHKVQCFVVDKESGRCKAIIDHFGQRINAKYFIVEDSYLSEETCSNVQYKQISRAVLITDQSILKTDLDQQTSILIVPPAEPGACAVRVTELCSSTMTCMKDTYLVHLTCSSSKTAREDLESVVKKLFTPYTETEINEEELTKPRLLWALYFNMRDSSGISRSSYNGLPSNVYVCSGPDCGLGNEHAVKQAETLFQEIFPTEEFCPPPPNPEDIIFDGDDKQPEAPGTNNVVMAKLESSEESKNLESPEKHLQN [CHML]	-0.076	54	53.7	-0.178	-0.83	-1.67
MPLRLDIKRKLTARSDRVKSVDLHPTEPWMLASLYNGSVCVWNHETQTLVKTFEVCDLPVRAAKFVARKNWVVTGADDMQIRVFNYNTLERVHMFEAHSDYIRCIAVHPTQPFILTSSDDMLIKLWDWDKKWSCSQVFEGHTHYVMQIVINPKDNNQFASASLDRTIKVWQLGSSSPNFTLEGHEKGVNCIDYYSGGDKPYLISGADDRLVKIWDYQNKTCVQTLEGHAQNVSCASFHPELPIIITGSEDGTVRIWHSSTYRLESTLNYGMERVWCVASLRGSNNVALGYDEGSIIVKLGREEPAMSMDANGKIIWAKHSEVQQANLKAMGDAEIKDGERLPLAVKDMGSCEIYPQTIQHNPNGRFVVVCGDGEYIIYTAMALRNKSFGSAQEFAWAHDSSEYAIRESNSIVKIFKNFKEKKSFKPDFGAESIYGGFLLGVRSVNGLAFYDWDNTELIRRIEIQPKHIFWSDSGELVCIATEESFFILKYLSEKVLAAQETHEGVTEDGIEDAFEVLGEIQEIVKTGLWVGDCFIYTSSVNRLNYYVGGEIVTIAHLDRTMYLLGYIPKDNRLYLGDKELNIISYSLLVSVLEYQTAVMRRDFSMADKVLPTIPKEQRTRVAHFLEKQGFKQQALTVSTDPEHRFELALQLGELKIAYQLAVEAESEQKWKQLAELAISKCQFGLAQECLHHAQDYGGLLLLATASGNANMVNKLAEGAERDGKNNVAFMSYFLQGKVDACLELLIRTGRLPEAAFLARTYLPSQVSRVVKLWRENLSKVNQKAAESLADPTEYENLFPGLKEAFVVEEWVKETHADLWPAKQYPLVTPNEERNVMEEGKDFQPSRSTAQQELDGKPASPTPVIVASHTANKEEKSLLELEVDLDNLELEDIDTTDINLDEDILDD [COPB2]	-0.298	51.7	51.3	-0.0942	-0.168	-0.888
MSSTQFNKGPSYGLSAEVKNRLLSKYDPQKEAELRTWIEGLTGLSIGPDFQKGLKDGTILCTLMNKLQPGSVPKINRSMQNWHQLENLSNFIKAMVSYGMNPVDLFEANDLFESGNMTQVQVSLLALAGKAKTKGLQSGVDIGVKYSEKQERNFDDATMKAGQCVIGLQMGTNKCASQSGMTAYGTRRHLYDPKNHILPPMDHSTISLQMGTNKCASQVGMTAPGTRRHIYDTKLGTDKCDNSSMSLQMGYTQGANQSGQVFGLGRQIYDPKYCPQGTVADGAPSGTGDCPDPGEVPEYPPYYQEEAGY [CNN2]	0.456	48.8	50.3	-0.0021	1.28	1.97
MAAETLLSSLLGLLLLGLLLPASLTGGVGSLNLEELSEMRYGIEILPLPVMGGQSQSSDVVIVSSKYKQRYECRLPAGAIHFQREREEETPAYQGPGIPELLSPMRDAPCLLKTKDWWTYEFCYGRHIQQYHMEDSEIKGEVLYLGYYQSAFDWDDETAKASKQHRLKRYHSQTYGNGSKCDLNGRPREAEVRFLCDEGAGISGDYIDRVDEPLSCSYVLTIRTPRLCPHPLLRPPPSAAPQAILCHPSLQPEEYMAYVQRQADSKQYGDKIIEELQDLGPQVWSETKSGVAPQKMAGASPTKDDSKDSDFWKMLNEPEDQAPGGEEVPAEEQDPSPEAADSASGAPNDFQNNVQVKVIRSPADLIRFIEELKGGTKKGKPNIGQEQPVDDAAEVPQREPEKERGDPERQREMEEEEDEDEDEDEDEDERQLLGEFEKELEGILLPSDRDRLRSEVKAGMERELENIIQETEKELDPDGLKKESERDRAMLALTSTLNKLIKRLEEKQSPELVKKHKKKRVVPKKPPPSPQPTEEDPEHRVRVRVTKLRLGGPNQDLTVLEMKRENPQLKQIEGLVKELLEREGLTAAGKIEIKIVRPWAEGTEEGARWLTDEDTRNLKEIFFNILVPGAEEAQKERQRQKELESNYRRVWGSPGGEGTGDLDEFDF [OS9]	0.241	54.4	53.8	-0.128	0.21	-0.468
MWRRKHPRTSGGTRGVLSGNRGVEYGSGRGHLGTFEGRWRKLPKMPEAVGTDPSTSRKMAELEEVTLDGKPLQALRVTDLKAALEQRGLAKSGQKSALVKRLKGALMLENLQKHSTPHAAFQPNSQIGEEMSQNSFIKQYLEKQQELLRQRLEREAREAAELEEASAESEDEMIHPEGVASLLPPDFQSSLERPELELSRHSPRKSSSISEEKGDSDDEKPRKGERRSSRVRQARAAKLSEGSQPAEEEEDQETPSRNLRVRADRNLKTEEEEEEEEEEEEDDEEEEGDDEGQKSREAPILKEFKEEGEEIPRVKPEEMMDERPKTRSQEQEVLERGGRFTRSQEEARKSHLARQQQEKEMKTTSPLEEEEREIKSSQGLKEKSKSPSPPRLTEDRKKASLVALPEQTASEEETPPPLLTKEASSPPPHPQLHSEEEIEPMEGPAPAVLIQLSPPNTDADTRELLVSQHTVQLVGGLSPLSSPSDTKAESPAEKVPEESVLPLVQKSTLADYSAQKDLEPESDRSAQPLPLKIEELALAKGITEECLKQPSLEQKEGRRASHTLLPSHRLKQSADSSSSRSSSSSSSSSRSRSRSPDSSGSRSHSPLRSKQRDVAQARTHANPRGRPKMGSRSTSESRSRSRSRSRSASSNSRKSLSPGVSRDSSTSYTETKDPSSGQEVATPPVPQLQVCEPKERTSTSSSSVQARRLSQPESAEKHVTQRLQPERGSPKKCEAEEAEPPAATQPQTSETQTSHLPESERIHHTVEEKEEVTMDTSENRPENDVPEPPMPIADQVSNDDRPEGSVEDEEKKESSLPKSFKRKISVVSATKGVPAGNSDTEGGQPGRKRRWGASTATTQKKPSISITTESLKSLIPDIKPLAGQEAVVDLHADDSRISEDETERNGDDGTHDKGLKICRTVTQVVPAEGQENGQREEEEEEKEPEAEPPVPPQVSVEVALPPPAEHEVKKVTLGDTLTRRSISQQKSGVSITIDDPVRTAQVPSPPRGKISNIVHISNLVRPFTLGQLKELLGRTGTLVEEAFWIDKIKSHCFVTYSTVEEAVATRTALHGVKWPQSNPKFLCADYAEQDELDYHRGLLVDRPSETKTEEQGIPRPLHPPPPPPVQPPQHPRAEQREQERAVREQWAEREREMERRERTRSEREWDRDKVREGPRSRSRSRDRRRKERAKSKEKKSEKKEKAQEEPPAKLLDDLFRKTKAAPCIYWLPLTDSQIVQKEAERAERAKEREKRRKEQEEEEQKEREKEAERERNRQLEREKRREHSRERDRERERERERDRGDRDRDRERDRERGRERDRRDTKRHSRSRSRSTPVRDRGGRR [ACIN1]	-1.35	49.6	50.8	0.887	-3.76	-1.15
MAEAEGESLESWLNKATNPSNRQEDWEYIIGFCDQINKELEGPQIAVRLLAHKIQSPQEWEALQALTVLEACMKNCGRRFHNEVGKFRFLNELIKVVSPKYLGDRVSEKVKTKVIELLYSWTMALPEEAKIKDAYHMLKRQGIVQSDPPIPVDRTLIPSPPPRPKNPVFDDEEKSKLLAKLLKSKNPDDLQEANKLIKSMVKEDEARIQKVTKRLHTLEEVNNNVRLLSEMLLHYSQEDSSDGDRELMKELFDQCENKRRTLFKLASETEDNDNSLGDILQASDNLSRVINSYKTIIEGQVINGEVATLTLPDSEGNSQCSNQGTLIDLAELDTTNSLSSVLAPAPTPPSSGIPILPPPPQASGPPRSRSSSQAEATLGPSSTSNALSWLDEELLCLGLADPAPNVPPKESAGNSQWHLLQREQSDLDFFSPRPGTAACGASDAPLLQPSAPSSSSSQAPLPPPFPAPVVPASVPAPSAGSSLFSTGVAPALAPKVEPAVPGHHGLALGNSALHHLDALDQLLEEAKVTSGLVKPTTSPLIPTTTPARPLLPFSTGPGSPLFQPLSFQSQGSPPKGPELSLASIHVPLESIKPSSALPVTAYDKNGFRILFHFAKECPPGRPDVLVVVVSMLNTAPLPVKSIVLQAAVPKSMKVKLQPPSGTELSPFSPIQPPAAITQVMLLANPLKEKVRLRYKLTFALGEQLSTEVGEVDQFPPVEQWGNL [GGA3]	0.445	50.1	50.7	-0.218	1.01	0.468
MATAAAAAAVMAPPGCPGSCPNFAVVCSFLERYGPLLDLPELPFPELERVLQAPPPDVGNGEVPKELVELHLKLMRKIGKSVTADRWEKYLIKICQEFNSTWAWEMEKKGYLEMSVECKLALLKYLCECQFDDNLKFKNIINEEDADTMRLQPIGRDKDGLMYWYQLDQDHNVRMYIEEQDDQDGSSWKCIVRNRNELAETLALLKAQIDPVLLKNSSQQDNSSRESPSLEDEETKKEEETPKQEEQKESEKMKSEEQPMDLENRSTANVLEETTVKKEKEDEKELVKLPVIVKLEKPLPENEEKKIIKEESDSFKENVKPIKVEVKECRADPKDTKSSMEKPVAQEPERIEFGGNIKSSHEITEKSTEETEKLKNDQQAKIPLKKREIKLSDDFDSPVKGPLCKSVTPTKEFLKDEIKQEEETCKRISTITALGHEGKQLVNGEVSDERVAPNFKTEPIETKFYETKEESYSPSKDRNIITEGNGTESLNSVITSMKTGELEKETAPLRKDADSSISVLEIHSQKAQIEEPDPPEMETSLDSSEMAKDLSSKTALSSTESCTMKGEEKSPKTKKDKRPPILECLEKLEKSKKTFLDKDAQRLSPIPEEVPKSTLESEKPGSPEAAETSPPSNIIDHCEKLASEKEVVECQSTSTVGGQSVKKVDLETLKEDSEFTKVEMDNLDNAQTSGIEEPSETKGSMQKSKFKYKLVPEEETTASENTEITSERQKEGIKLTIRISSRKKKPDSPPKVLEPENKQEKTEKEEEKTNVGRTLRRSPRISRPTAKVAEIRDQKADKKRGEGEDEVEEESTALQKTDKKEILKKSEKDTNSKVSKVKPKGKVRWTGSRTRGRWKYSSNDESEGSGSEKSSAASEEEEEKESEEAILADDDEPCKKCGLPNHPELILLCDSCDSGYHTACLRPPLMIIPDGEWFCPPCQHKLLCEKLEEQLQDLDVALKKKERAERRKERLVYVGISIENIIPPQEPDFSEDQEEKKKDSKKSKANLLERRSTRTRKCISYRFDEFDEAIDEAIEDDIKEADGGGVGRGKDISTITGHRGKDISTILDEERKENKRPQRAAAARRKKRRRLNDLDSDSNLDEEESEDEFKISDGSQDEFVVSDENPDESEEDPPSNDDSDTDFCSRRLRRHPSRPMRQSRRLRRKTPKKKYSDDDEEEESEENSRDSESDFSDDFSDDFVETRRRRSRRNQKRQINYKEDSESDGSQKSLRRGKEIRRVHKRRLSSSESEESYLSKNSEDDELAKESKRSVRKRGRSTDEYSEADEEEEEEEGKPSRKRLHRIETDEEESCDNAHGDANQPARDSQPRVLPSEQESTKKPYRIESDEEEDFENVGKVGSPLDYSLVDLPSTNGQSPGKAIENLIGKPTEKSQTPKDNSTASASLASNGTSGGQEAGAPEEEEDELLRVTDLVDYVCNSEQL [RSF1]	-1.03	49.1	51.7	0.0168	0.31	2.21
